# Laboratory results from the DeepSol protein solubility set.
# Assay: soluble on expression in E. coli; label from the status in PepcDB or PDB records
row,Sequence,soluble on expression in E. coli
1,MNDFRPNPSLLLETSWEVCNKQGGIYTVLTSRAHEMMKRHDGRIIFIGPLLTEQEDLPTDFENTVPAILEDWHRDAAPSLDLRYVCGSWRTPGSPPVVLVDFEPLHAQKATLYYEMWEHFGIQSDKGYGDYDEASLFGIAAAQTMHSLCEYLCPEDQPAIGIFNEWMLGMGLLYSKRKTPRLKTLFLTHATTTGRSIAGNNKALYAYMPGYNGDQMAAELGVEAKHGIEKAAAHQSDTFATVSELTAKECRQLLERDPMVLPNGFEPNFVPQGEEYERRRAEARKRLLHVAEHLTGKQLPADTLLIATSGRYEYRNKGIDLFIDAASEAGRSGK,not soluble
2,MAVRKLTTGKWLCECYPAGRSGRRVRKQFATKGEALAFERHTMEETEAKPWLGESVDRRTLKDVVELWFKLHGKSLTAGQHVYDKLLLMVDALGNPLATDLTSKMFAHYRDKRLTGEIYFSEKWKKGASPVTINLEQSYLSSVFSELSRLGEWSYPNPLENMRKFTIA,not soluble
3,MAHHHHHHMALQENRDSYKVKALSLSEFVQQCSDCHQLCLEKTVRVLDNRSRAPRGWEALFNSVAEERRSEDLDLCESRCRYMQTTCPSQDKVQQYEQALAAASLKLKKSTPPNPSVLQDASRCEHAVEVFSNVLFALAHKPSKVSFPTKDLKTGGNTDAESHAGAPTEAHRKVLEGAKNMDNDVSCRSSKLRHERFGSKAQDVASSTGSSLAPDTAAASPASSGTTPKW,not soluble
4,MGSDKIHHHHHHMPEEIVTRVITFFFPYDSKVEGKNDCVDTYKIHTFPEYENSDWYRGDPRDHSNGQPNGHEMWGHGQIGWWQKDENGWHWYWEDESNMPRPTQGLSEIMSTTTTTGSPLSIYSTTPSDAPETYSDTVLSVVLGF,not soluble
5,GIVNVPNPNNTKFQELARFAIQDYNKKQNAHLEFVENLNVKEQVVAGIMYYITLAATDDAGKKKIYKAKIWVKEWEDFKKVVEFKLV,soluble
6,MQRLEESTSCRGVGDMRKAIIVGVGMTPVGEHWRSSLRDLAVEAILNAMDDAGIDKVDSLYVGNMASGSFVEQENLGALIADWAGLGNIPAVKIEAACASGGAAVQEGAKAVLSGLEDVVLVVGVEKMTDAWPSDATRYLGYAADAEWELFHGASFVALNALIMRLYMNTYGYKEEDLALFAVNAHANGAKNPYAMFKKPITVETVMKSPYIADPLKLFDASPVCDGAAAVIITTPEKAKELGIPKDKWIEIAGMGRAIDTINLANREDFLTLKAATIAAERAYKMAGVKPEDVDFFEVHDAFTVMAALSLEALGVAKKGEGAKLAIEGQIAIDGDYPIQTMGGLKARGHPVGATGVYQVVEAVLQLRGEAPDGIQVPDAEVGLTQNIGGTGSNITVTVLRRV,not soluble
7,GHMKIVLKIFHAGSLSVPFEEYEKMFEKEHPNVDVEREPAGSVACVRKIIDLGKKADILASADYSLIPQMMMPKYADWYVMFARNEIVLAYTDKSKYKDEINSTNWYKILQRPDVKIGFSNPNDDPCGYRTQMVLQLAELYYKDPTIYDNLVLKHSNIKVEENNGTYLILVPKELDVDTNKLFVRSKETDLLAPLEAGAFDYLFIYKSVANQHHLKYIELPKEINLGYYEYADTYKKVALKIIAKNKTINAKPIVYGMTVPTNAPHKKEAIEFVKFVLGHPEVLENNGQPAI,soluble
8,MSNTVATMINKRNIMRNYIKIGVAGPVGAGKTALIEKLTREIASKYSVAVITNDIYTQEDAEFLTKNSLLPPERIMGVETGGCPHTAIREDASMNLEAVDEMVTRFPDVEIVFIESGGDNLSATFSPDLADVTIFVIDVAQGEKIPRKGGPGITRSDLLVINKTDLAPFVGADLSVMERDARRMRNGQPFIFTNLMKKENLDGVIGWIEKYALLKNVEEPASLVRLEHHHHHH,soluble
9,MLDRIRGQLEQLSSAERKVADLVLEQPYTVIQAAVAEIARNAGVSQPTVIRFCRTVGCSGLPDFKLKLAGSLVTGVPYVHSSVRPEDPTSEIVAKVFDNTVSALLKCRNDVN,not soluble
10,MSDVLITLSVELEDRPGQLLKVLQPISGMGGNIVGIVHQRGKKTPLNRLPVEISFKMDSEKVQKLIDELKSLGIIIRSFNEVRLTATTSVLLIGHLIHTDISDTISSIDVDGEAECVEMHVSMPEISGPSTAIITISASGKEKLKEAVEKLKEVCRKKEIILIEPVNEELV,not soluble
11,MAHHHHHHMGPTPYQDKPYPVQPHNLNEFQQPPDTWRKSPFMSKLMDQALPVYDDVVTGSGRLYWQEPAKVWHLFEADDTLILEEHDREEWNERPYVAVNHLYEPPIGSEERPIRVEAVGNPGDQQIVMCFGNCAPHVPQSTYYMMMKGYSKNKCPMCQQWFYIHNRPWLVMHPDWTDEPAADEGPAYTFAEIEAEFDRDFHEFAVYLNAE,not soluble
12,SSQSISPMRSISENSLVAMDFSGQKSRVIENPTEALSVAVEEGLAWRKKGSLRLGTHGS,soluble
13,MSLSQPRYLSESKVAIKQSSDINGSNLNVGLLLGTGNPSSAEDALYLKEYISSPDMLGVLDKQLNFRQAFGQSGWDFFYHLSEGATREQFLNYYRDRISVVYDDKTGLLTLGTQGFSPEFAEAFNQAVLKESEKFINEISHRIAREQLQFAEDEMQAARVRLNRSKTELLTYQNSNNVLDPEAQALAATSLVNTLVSQRIQMEAELRNLLTYLRDDAPQVISAQNALKSLSTQIDNEKNKITAPDGHKLNRMAVDFEEIKAKVQFDGEIYKLTLTSIEKTRVDAARKLKVLSVISSPQLPEESAFPNREGHHHHHH,soluble
14,MDASKSLPIRKHTTLLNRLPETRFATQLDKAKANWIVFAEYLSPRHFEDIDFFTGFYNPVLETWKVGQYEVALMAGELTSQHETILKSLNIDYASLNEVPDLSAPG,not soluble
15,MLDLIDSAKESVWIVSPYFVPDEEALAVIRRVAMSGVDVRVIIPGKGDRGISFHGSNAYVKTMIEAGAKMYAYADDSFVHAKAMLVDGTRAAIGTANFDVRSFRLNHELMVFLYDESEAMLHLKRDFKKDFEDSRLFTMKDMENKPLLTRIKEVLSSLLSPIL,not soluble
16,MYTPVSKSTKSNKNRSSLDKILDAKKPVNLLILGTDTGAEGRSVKNYHGLTDLMMFVTVNPSKKQTRVTTIARDSKVNLPDYPEVSPIKLNSAYSLGGVSETIKTLDKYYSVPIDGYVLVNWASTMKIITKMGGVDVISPLTFDNMGYSFKKGQMYHISGKKALAFVQLRHGDPRQDYGRQERERLVMMAAIKKSVSYKTILNSSFMQSLGDSMQTDLSLNDMIKLAMNYQGVTDNVKSDYAQGKSSSVNNLEHHHHHH,soluble
17,MAHHHHHHMVSKTRKQRQKKKAGMQAHDGVLPPVVPSVPKSVHLKKTRPNMKGKMKIRLGLESPIDIYNGFEERKGVIWRCPTCAKACRVVGFCVDCASGVKSKSHAGQLSGRASTKKEAAQTRAPKLRIKEKSRVVKLRRKK,soluble
18,MTGCSHRFYYSHMIQTSVRSFEVGEDLASMAVDERISLLRSRMQSISKSGDFSLDYNCKTADKNIIPLSDPLSHVLPWGGLPRG,not soluble
19,MKFTDKTTQADTQRTITKDGFLVVPATISKVGVFDYLATELGLKEDGIKKVARTEKSLFSDETIKSFENATLTVGHLKDGVNAKNWKQLSVGVVRNVKRVGDELTAEAWIYDEQAIKTVQEHGVEQLSCGYDCDIKPSTVQDADFEMSPMIGNHVAIVAKGRCGGSVKLADEDKTIMGKTAKILDAFLGAFGIKLSDEQKKQIEDEEKSGSEEGKEPKGEQPTKPKEKKSEPENKKEDDVEKEELEKSLKAKDEEIQQLKDAQAKRDAEVKQAAVLADAKTAFKEVNFADNATVREIQESAVVAQGIFTKDEAAKLSDEEISGAYQTAKVVVAKLADERKSLGNILLGDAEPKAAPKIDFNKTYNS,not soluble
20,MSLQKLVAIEPVSLVLSAEKALYSFADEVVMYSDIPAGDNEIIARIGDADAVLLSYTSQINRYILERCPNVRYIGMCCSLYSPESANVDIRYANERGITVTGIRDYGDEGVIEYVVSELVRCLHGFGQKPWEGIPREITGLKVGIVGLGKSGGMIADAMKFFGADIAYYARSEKKEAGAKGYRFMPLNELLTWSEVVCCCLNKNTVLLHEAEFKALGNRKILFNTGLSPAWDESSFTRWLEEDNLCFCDTLGALGSTALLTHPHVRCMQVSTGRTRQAFDRLSEKVLANLSEYNGEGHHHHHH,soluble
21,SMGRRCQAQVSRRISFSASHRLYSKFLSDEENLKLFGKCNNPNGHGHNYKVVVTVHGEIDPATGMVMNLADLKKYMEEAIMQPLDHKNLDMDVPYFADVVSTTENVAVYIWDNLQKVLPVGVLYKVKVYETDNNIVVYKGE,soluble
